Biological target: αVβ3 integrin (human (endogenous in THP-1)) (UniProt P06756)
UniProt P06756, sequence (P06756 31-1048, chain 1 of 2): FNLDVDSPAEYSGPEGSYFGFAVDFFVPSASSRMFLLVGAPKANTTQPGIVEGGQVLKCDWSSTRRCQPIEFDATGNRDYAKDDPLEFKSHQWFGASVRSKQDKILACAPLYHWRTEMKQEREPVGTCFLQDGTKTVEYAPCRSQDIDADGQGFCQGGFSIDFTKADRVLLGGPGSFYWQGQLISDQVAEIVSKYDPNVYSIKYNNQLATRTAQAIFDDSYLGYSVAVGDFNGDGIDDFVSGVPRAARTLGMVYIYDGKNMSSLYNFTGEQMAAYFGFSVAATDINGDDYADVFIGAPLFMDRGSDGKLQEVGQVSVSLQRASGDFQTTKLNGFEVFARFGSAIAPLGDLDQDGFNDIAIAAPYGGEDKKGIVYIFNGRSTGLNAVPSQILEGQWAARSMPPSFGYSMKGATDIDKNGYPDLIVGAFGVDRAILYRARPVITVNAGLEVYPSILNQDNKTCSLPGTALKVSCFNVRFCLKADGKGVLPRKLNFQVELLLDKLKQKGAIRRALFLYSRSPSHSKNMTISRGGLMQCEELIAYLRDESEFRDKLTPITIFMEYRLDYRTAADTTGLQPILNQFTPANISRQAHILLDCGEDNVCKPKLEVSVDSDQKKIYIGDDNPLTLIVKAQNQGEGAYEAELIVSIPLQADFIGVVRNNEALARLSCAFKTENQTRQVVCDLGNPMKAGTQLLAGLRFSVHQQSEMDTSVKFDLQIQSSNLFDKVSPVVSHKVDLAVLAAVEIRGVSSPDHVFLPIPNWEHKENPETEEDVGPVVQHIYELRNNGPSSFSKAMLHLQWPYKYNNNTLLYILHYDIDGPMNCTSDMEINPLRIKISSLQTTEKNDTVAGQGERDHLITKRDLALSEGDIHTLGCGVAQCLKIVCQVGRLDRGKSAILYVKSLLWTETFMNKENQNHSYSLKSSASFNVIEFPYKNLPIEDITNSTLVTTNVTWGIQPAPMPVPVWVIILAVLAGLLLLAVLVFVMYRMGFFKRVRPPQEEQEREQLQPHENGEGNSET
UniProt P06756, sequence (P05106 27-788, chain 2 of 2, further chain): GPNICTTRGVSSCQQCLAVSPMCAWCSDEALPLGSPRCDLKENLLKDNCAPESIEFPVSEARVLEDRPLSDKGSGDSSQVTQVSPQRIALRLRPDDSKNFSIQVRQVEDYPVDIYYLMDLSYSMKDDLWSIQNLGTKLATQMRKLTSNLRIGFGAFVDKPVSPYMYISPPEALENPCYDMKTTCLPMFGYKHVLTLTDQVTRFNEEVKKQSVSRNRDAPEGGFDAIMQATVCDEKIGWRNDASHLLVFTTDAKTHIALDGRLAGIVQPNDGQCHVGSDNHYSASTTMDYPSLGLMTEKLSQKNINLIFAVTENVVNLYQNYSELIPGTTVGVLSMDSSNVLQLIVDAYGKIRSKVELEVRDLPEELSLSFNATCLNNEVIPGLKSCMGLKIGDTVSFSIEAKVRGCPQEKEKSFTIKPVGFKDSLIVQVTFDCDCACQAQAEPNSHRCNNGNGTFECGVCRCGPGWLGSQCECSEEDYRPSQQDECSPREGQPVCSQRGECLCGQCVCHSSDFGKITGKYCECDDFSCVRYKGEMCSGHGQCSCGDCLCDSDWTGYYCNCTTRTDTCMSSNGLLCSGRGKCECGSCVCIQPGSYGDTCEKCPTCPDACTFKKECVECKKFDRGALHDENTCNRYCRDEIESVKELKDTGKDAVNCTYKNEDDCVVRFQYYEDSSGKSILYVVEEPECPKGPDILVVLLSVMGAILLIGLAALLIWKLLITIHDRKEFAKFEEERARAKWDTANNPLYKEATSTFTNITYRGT

- decrease in free intracellular Ca^2+ (Fluo-4, live-cell confocal imaging) in LPS-induced THP-1 macrophages after lunasin (1 µM), over 6.67 min (400 frames); resurgence after 30 min: 34.6%
Substance: Lunasin (peptide)
